Values belong to the substance of their own block, whether it stands above or below them.
Tests used:
Test in all cases: cell-based or functional assay
IL10Rb (CRF2-4) (human) = IL10Rb (CRF2-4) (human) (UniProt Q08334)
[1] = molecular target: zcytoR19 and IL10Rb (CRF2-4) coexpressed on BHK cells (human)
human zcytor19 (human) = molecular target: human zcytor19 (human)

IL10Rb (CRF2-4) (human), sequence (Q08334 20-325 limits assumed, form in doubt): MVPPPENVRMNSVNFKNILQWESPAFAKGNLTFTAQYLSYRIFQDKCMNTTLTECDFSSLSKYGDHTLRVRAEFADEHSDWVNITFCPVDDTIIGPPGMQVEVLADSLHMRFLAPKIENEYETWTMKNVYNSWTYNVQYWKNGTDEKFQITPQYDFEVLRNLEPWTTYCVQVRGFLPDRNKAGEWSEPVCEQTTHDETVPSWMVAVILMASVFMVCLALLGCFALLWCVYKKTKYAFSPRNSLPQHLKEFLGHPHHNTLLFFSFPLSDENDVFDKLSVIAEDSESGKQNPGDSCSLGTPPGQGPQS

Optical Density (570nm), MTT, EMCV-infected HuzcytoR19-overexpressing 293 cells; Zcyto20-CEE 0.5 ng/ml; Anti-IL10Rb 5 ug/ml (IL10Rb (CRF2-4) (human)): 0.95 OD 570nm
Optical Density (570nm), MTT, EMCV-infected HuzcytoR19-overexpressing 293 cells; Zcyto20-CEE 0.5 ng/ml; Anti-LeptinR 5 ug/ml (control antibody) (IL10Rb (CRF2-4) (human)): 0.24 OD 570nm
Optical Density (570nm), MTT, EMCV-infected wild-type 293 cells; Zcyto20-CEE 200 ng/ml; Anti-IL10Rb 5 ug/ml (IL10Rb (CRF2-4) (human)): 0.94 OD 570nm
Optical Density (570nm), MTT, EMCV-infected wild-type 293 cells; Zcyto20-CEE 200 ng/ml; Anti-LeptinR 5 ug/ml (control antibody) (IL10Rb (CRF2-4) (human)): 0.88 OD 570nm
Substance: zcyto20-CEE (ligand)

ISRE-luciferase fold induction; wild-type 293 cells; Zcyto22 0.01 ng/ml; + IL10Rb neutralizing antibody (8 ug/ml) (fold induction) (IL10Rb (CRF2-4) (human)): 0.9
ISRE-luciferase fold induction; wild-type 293 cells; Zcyto22 0.01 ng/ml; no antibody (fold induction) (IL10Rb (CRF2-4) (human)): 0.9
ISRE-luciferase fold induction; wild-type 293 cells; Zcyto22 0.1 ng/ml; + IL10Rb neutralizing antibody (8 ug/ml) (fold induction) (IL10Rb (CRF2-4) (human)): 0.8
ISRE-luciferase fold induction; wild-type 293 cells; Zcyto22 0.1 ng/ml; no antibody (fold induction) (IL10Rb (CRF2-4) (human)): 1.2
ISRE-luciferase fold induction; wild-type 293 cells; Zcyto22 1 ng/ml; + IL10Rb neutralizing antibody (8 ug/ml) (fold induction) (IL10Rb (CRF2-4) (human)): 0.8
ISRE-luciferase fold induction; wild-type 293 cells; Zcyto22 1 ng/ml; no antibody (fold induction) (IL10Rb (CRF2-4) (human)): 1.8
ISRE-luciferase fold induction; wild-type 293 cells; Zcyto22 10 ng/ml; + IL10Rb neutralizing antibody (8 ug/ml) (fold induction) (IL10Rb (CRF2-4) (human)): 1
ISRE-luciferase fold induction; wild-type 293 cells; Zcyto22 10 ng/ml; no antibody (fold induction) (IL10Rb (CRF2-4) (human)): 8
ISRE-luciferase fold induction; wild-type 293 cells; Zcyto22 100 ng/ml; + IL10Rb neutralizing antibody (8 ug/ml) (fold induction) (IL10Rb (CRF2-4) (human)): 1.2
ISRE-luciferase fold induction; wild-type 293 cells; Zcyto22 100 ng/ml; no antibody (fold induction) (IL10Rb (CRF2-4) (human)): 11
ISRE-luciferase fold induction; zcytoR19-overexpressing 293 cells; Zcyto22 0.01 ng/ml; + IL10Rb neutralizing antibody (8 ug/ml) (fold induction) (IL10Rb (CRF2-4) (human)): 1.3
ISRE-luciferase fold induction; zcytoR19-overexpressing 293 cells; Zcyto22 0.01 ng/ml; no antibody (fold induction) (IL10Rb (CRF2-4) (human)): 1
ISRE-luciferase fold induction; zcytoR19-overexpressing 293 cells; Zcyto22 0.1 ng/ml; + IL10Rb neutralizing antibody (8 ug/ml) (fold induction) (IL10Rb (CRF2-4) (human)): 1.1
ISRE-luciferase fold induction; zcytoR19-overexpressing 293 cells; Zcyto22 0.1 ng/ml; no antibody (fold induction) (IL10Rb (CRF2-4) (human)): 8.4
ISRE-luciferase fold induction; zcytoR19-overexpressing 293 cells; Zcyto22 1 ng/ml; + IL10Rb neutralizing antibody (8 ug/ml) (fold induction) (IL10Rb (CRF2-4) (human)): 2.3
ISRE-luciferase fold induction; zcytoR19-overexpressing 293 cells; Zcyto22 1 ng/ml; no antibody (fold induction) (IL10Rb (CRF2-4) (human)): 69
ISRE-luciferase fold induction; zcytoR19-overexpressing 293 cells; Zcyto22 10 ng/ml; + IL10Rb neutralizing antibody (8 ug/ml) (fold induction) (IL10Rb (CRF2-4) (human)): 39
ISRE-luciferase fold induction; zcytoR19-overexpressing 293 cells; Zcyto22 10 ng/ml; no antibody (fold induction) (IL10Rb (CRF2-4) (human)): 97
ISRE-luciferase fold induction; zcytoR19-overexpressing 293 cells; Zcyto22 100 ng/ml; + IL10Rb neutralizing antibody (8 ug/ml) (fold induction) (IL10Rb (CRF2-4) (human)): 76
ISRE-luciferase fold induction; zcytoR19-overexpressing 293 cells; Zcyto22 100 ng/ml; no antibody (fold induction) (IL10Rb (CRF2-4) (human)): 82
ISRE-luciferase fold induction; BHK cells transfected with zcytoR19 and IL10Rb (CRF2-4); zcyto22 0.001 ng/ml (fold induction) [1]: 1.3
ISRE-luciferase fold induction; BHK cells transfected with zcytoR19 and IL10Rb (CRF2-4); zcyto22 0.01 ng/ml (fold induction) [1]: 1.7
ISRE-luciferase fold induction; BHK cells transfected with zcytoR19 and IL10Rb (CRF2-4); zcyto22 0.1 ng/ml (fold induction) [1]: 2.4
ISRE-luciferase fold induction; BHK cells transfected with zcytoR19 and IL10Rb (CRF2-4); zcyto22 1 ng/ml (fold induction) [1]: 2.7
ISRE-luciferase fold induction; BHK cells transfected with zcytoR19 and IL10Rb (CRF2-4); zcyto22 10 ng/ml (fold induction) [1]: 2.7
ISRE-luciferase fold induction; BHK cells transfected with zcytoR19 and IL10Rb (CRF2-4); zcyto22 100 ng/ml (fold induction) [1]: 2.2
ISRE-luciferase fold induction; BHK cells transfected with zcytoR19 and IL10Rb (CRF2-4); zcyto22 1000 ng/ml (fold induction) [1]: 2.2
ISRE-luciferase fold induction; 293 cells transfected with ISRE-Luc./Zcytor19; Zcyto22 125ng/ml (fold induction) (human zcytor19 (human)): 104
ISRE-luciferase fold induction; BHK cells transfected with zcytoR19 alone; zcyto22 0.001 ng/ml (fold induction) (human zcytor19 (human)): 1.2
ISRE-luciferase fold induction; BHK cells transfected with zcytoR19 alone; zcyto22 0.01 ng/ml (fold induction) (human zcytor19 (human)): 1.2
ISRE-luciferase fold induction; BHK cells transfected with zcytoR19 alone; zcyto22 0.1 ng/ml (fold induction) (human zcytor19 (human)): 1.1
ISRE-luciferase fold induction; BHK cells transfected with zcytoR19 alone; zcyto22 1 ng/ml (fold induction) (human zcytor19 (human)): 1.5
ISRE-luciferase fold induction; BHK cells transfected with zcytoR19 alone; zcyto22 10 ng/ml (fold induction) (human zcytor19 (human)): 1.9
ISRE-luciferase fold induction; BHK cells transfected with zcytoR19 alone; zcyto22 100 ng/ml (fold induction) (human zcytor19 (human)): 2
ISRE-luciferase fold induction; BHK cells transfected with zcytoR19 alone; zcyto22 1000 ng/ml (fold induction) (human zcytor19 (human)): 1.8
Substance: zcyto22 (ligand)

ISRE-luciferase fold induction; 293 cells transfected with ISRE-Luc./Zcytor19; Zcyto10 125ng/ml (fold induction) (human zcytor19 (human)): 1
Substance: zcyto10 (from UniProt Q9NYY1 25-176) (ligand)
